Laboratory results: article PMC10663500, “High-throughput analysis system of interaction kinetics for data-driven antibody design” (Scientific Reports, 2023)

B1: toripalimab Fab H.D31A (Fab, V domains shown)
VH: QGQLVQSGAEVKKPGASVKVSCKASGYTFTAYEMHWVRQAPIHGLEWIGVIESETGGTAYNQKFKGRVTITADKSTSTAYMELSSLRSEDTAVYYCAREGITTVATTYYWYFDVWGQGTTVTVSS
VL: DVVMTQSPLSLPVTLGQPASISCRSSQSIVHSNGNTYLEWYLQKPGQSPQLLIYKVSNRFSGVPDRFSGSGSGTDFTLKISRVEAEDVGVYYCFQGSHVPLTFGQGTKLEIK
notes: heavy chain of Sm3 with this change; numbers count from the chain's first residue; as the light chain of Sm3; source: Brevibacillus, culture supernatant (ammonium sulfate precipitate); not shown: 6xHis, C-terminal, kept; 6xHN, C-terminal, kept
B2: toripalimab Fab H.E52A (Fab, V domains shown)
VH: QGQLVQSGAEVKKPGASVKVSCKASGYTFTDYEMHWVRQAPIHGLEWIGVIASETGGTAYNQKFKGRVTITADKSTSTAYMELSSLRSEDTAVYYCAREGITTVATTYYWYFDVWGQGTTVTVSS
VL: DVVMTQSPLSLPVTLGQPASISCRSSQSIVHSNGNTYLEWYLQKPGQSPQLLIYKVSNRFSGVPDRFSGSGSGTDFTLKISRVEAEDVGVYYCFQGSHVPLTFGQGTKLEIK
notes: as for B1
B3: toripalimab Fab L.Y37A (Fab, V domains shown)
VH: QGQLVQSGAEVKKPGASVKVSCKASGYTFTDYEMHWVRQAPIHGLEWIGVIESETGGTAYNQKFKGRVTITADKSTSTAYMELSSLRSEDTAVYYCAREGITTVATTYYWYFDVWGQGTTVTVSS
VL: DVVMTQSPLSLPVTLGQPASISCRSSQSIVHSNGNTALEWYLQKPGQSPQLLIYKVSNRFSGVPDRFSGSGSGTDFTLKISRVEAEDVGVYYCFQGSHVPLTFGQGTKLEIK
notes: as the heavy chain of Sm3; light chain of Sm3 with this change; numbers count from the chain's first residue; source: Brevibacillus, culture supernatant (ammonium sulfate precipitate); not shown: 6xHis, C-terminal, kept; 6xHN, C-terminal, kept
B4: toripalimab Fab H.H35A (Fab, V domains shown)
VH: QGQLVQSGAEVKKPGASVKVSCKASGYTFTDYEMAWVRQAPIHGLEWIGVIESETGGTAYNQKFKGRVTITADKSTSTAYMELSSLRSEDTAVYYCAREGITTVATTYYWYFDVWGQGTTVTVSS
VL: DVVMTQSPLSLPVTLGQPASISCRSSQSIVHSNGNTYLEWYLQKPGQSPQLLIYKVSNRFSGVPDRFSGSGSGTDFTLKISRVEAEDVGVYYCFQGSHVPLTFGQGTKLEIK
notes: as for B1
B5: toripalimab Fab H.T55A (Fab, V domains shown)
VH: QGQLVQSGAEVKKPGASVKVSCKASGYTFTDYEMHWVRQAPIHGLEWIGVIESEAGGTAYNQKFKGRVTITADKSTSTAYMELSSLRSEDTAVYYCAREGITTVATTYYWYFDVWGQGTTVTVSS
VL: DVVMTQSPLSLPVTLGQPASISCRSSQSIVHSNGNTYLEWYLQKPGQSPQLLIYKVSNRFSGVPDRFSGSGSGTDFTLKISRVEAEDVGVYYCFQGSHVPLTFGQGTKLEIK
notes: as for B1
B6: toripalimab Fab L.Q95Y (Fab, V domains shown)
VH: QGQLVQSGAEVKKPGASVKVSCKASGYTFTDYEMHWVRQAPIHGLEWIGVIESETGGTAYNQKFKGRVTITADKSTSTAYMELSSLRSEDTAVYYCAREGITTVATTYYWYFDVWGQGTTVTVSS
VL: DVVMTQSPLSLPVTLGQPASISCRSSQSIVHSNGNTYLEWYLQKPGQSPQLLIYKVSNRFSGVPDRFSGSGSGTDFTLKISRVEAEDVGVYYCFYGSHVPLTFGQGTKLEIK
notes: as for B3
B7: toripalimab Fab L.H31A (Fab, V domains shown)
VH: QGQLVQSGAEVKKPGASVKVSCKASGYTFTDYEMHWVRQAPIHGLEWIGVIESETGGTAYNQKFKGRVTITADKSTSTAYMELSSLRSEDTAVYYCAREGITTVATTYYWYFDVWGQGTTVTVSS
VL: DVVMTQSPLSLPVTLGQPASISCRSSQSIVASNGNTYLEWYLQKPGQSPQLLIYKVSNRFSGVPDRFSGSGSGTDFTLKISRVEAEDVGVYYCFQGSHVPLTFGQGTKLEIK
notes: as for B3
B8: toripalimab Fab H.H35Y (Fab, V domains shown)
VH: QGQLVQSGAEVKKPGASVKVSCKASGYTFTDYEMYWVRQAPIHGLEWIGVIESETGGTAYNQKFKGRVTITADKSTSTAYMELSSLRSEDTAVYYCAREGITTVATTYYWYFDVWGQGTTVTVSS
VL: DVVMTQSPLSLPVTLGQPASISCRSSQSIVHSNGNTYLEWYLQKPGQSPQLLIYKVSNRFSGVPDRFSGSGSGTDFTLKISRVEAEDVGVYYCFQGSHVPLTFGQGTKLEIK
notes: as for B1

Each binder was assayed against T1, human programmed cell death protein 1 (hPD-1) C93S (aa 24-167) (Homo sapiens, UniProt Q15116, C93S) (assay: SPR; Carterra LSA; Fab from the ammonium sulfate precipitate of the culture supernatant immobilised on a NiHC200M chip; hPD-1 (1-1024 nM) or mPD-1-Fc (4-1024 nM) as analyte, fourfold dilution series, no regeneration; HBS-EP pH 7.4, 25 °C; medians over the spots of a construct, KD = koff/kon). Details: one partner purified.
T1 construct: made as a fusion with a TEV site and human Fc; the Fc was cut off with TEV protease; source: Expi293F, purified (Protein A, TEV cleavage of Fc, SEC; monomer fractions); not shown: Fc (human), C-terminal, cleaved
T1 sequence (Q15116 24-167 C93S): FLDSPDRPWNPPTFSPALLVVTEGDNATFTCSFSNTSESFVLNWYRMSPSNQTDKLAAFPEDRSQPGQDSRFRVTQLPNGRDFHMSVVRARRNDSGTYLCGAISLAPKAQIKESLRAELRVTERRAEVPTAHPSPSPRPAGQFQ
Method in brief: (§1)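 Fabs, ammonium sulfate-precipitated from Brevibacillus supernatants and redissolved in HBS-EP, were captured in duplicate on a NiHC200M chip on a Carterra LSA at 25 °C. Fourfold series of human PD-1 (1–1024 nM) or mouse PD-1-Fc (4–1024 nM) were run without regeneration, with association for 10 min and dissociation for 5 min. Rates were fitted with the kdka model, choosing the better of slow- or fast-dissociation settings, and unconfirmed binders were given kon 10^3 […] and koff 10^−2 s^−1. The dissociation constant KD is koff/kon based on per-construct medians.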

Question: How did the Kd turn out when B1 was run?
Answer: < 0.861 nM

Question: And the koff?
Answer: < 1e-05 s⁻¹

Question: What about the kon of the same binder?
Answer: 11600 M⁻¹ s⁻¹

Question: Which results are given for B2?
Answer: Kd: 40.1 nM; koff: 0.000844 s⁻¹; kon: 21100 M⁻¹ s⁻¹

Question: B3 was tested. Which Kd did it give?
Answer: 237 nM

Question: And the koff?
Answer: 0.00432 s⁻¹

Question: What about the kon of the same binder?
Answer: 18300 M⁻¹ s⁻¹

Question: B4 was tested. Which Kd did it give?
Answer: 2470 nM

Question: What about the koff of the same binder?
Answer: 0.00804 s⁻¹

Question: What about the kon of the same binder?
Answer: 3250 M⁻¹ s⁻¹

Question: What does the source list for B5?
Answer: Kd: 5.76 nM; koff: 4.01e-05 s⁻¹; kon: 6960 M⁻¹ s⁻¹

Question: How did the Kd turn out when B6 was run?
Answer: 55 nM

Question: And the koff?
Answer: 0.000734 s⁻¹

Question: What about the kon of the same binder?
Answer: 13300 M⁻¹ s⁻¹

Question: For B7, which Kd is on record?
Answer: 57.3 nM

Question: And the koff?
Answer: 0.000589 s⁻¹

Question: What about the kon of the same binder?
Answer: 10300 M⁻¹ s⁻¹

Question: How did the Kd turn out when B8 was run?
Answer: 294 nM

Question: What about the koff of the same binder?
Answer: 0.00276 s⁻¹

Question: What about the kon of the same binder?
Answer: 9390 M⁻¹ s⁻¹

What follows are binders tested against T2, mouse programmed cell death protein 1 Fc fusion protein (mPD-1-Fc), mPD-1 C60S (aa 25-167) (Mus musculus, UniProt Q02242, stabilised) in the same assay as above. Details: one partner purified.
T2 construct: not cleaved; source: Expi293F, purified (Protein A, SEC; dimeric fraction); not shown: Fc (human), C-terminal, kept
Method in brief: as §1

Question: Which results are given for B1?
Answer: Kd: 204 nM; koff: 0.00913 s⁻¹; kon: 44700 M⁻¹ s⁻¹

Question: How did the Kd turn out when B5 was run?
Answer: 411 nM

Question: What about the koff of the same binder?
Answer: 0.0151 s⁻¹

Question: And the kon?
Answer: 36800 M⁻¹ s⁻¹
